16 molecules from US20240391954A1, “MC4R AGONIST PEPTIDES” (The Regents of the University of Michigan, priority 2021, published 2024) can be followed below.

Positions of bridges follow the written chain, without caps; N, C: chain ends. Non-standard residues stand in square brackets, D forms with d. NMeW = CN[C@@H](Cc1c[nH]c2ccccc12)C(=O)O; 2Nal = N[C@@H](Cc1ccc2ccccc2c1)C(=O)O; d2Nal = N[C@H](Cc1ccc2ccccc2c1)C(=O)O; NMeH = CN[C@@H](Cc1c[nH]cn1)C(=O)O; Cit = NC(=O)NCCC[C@H](N)C(=O)O; NMeA = CN[C@@H](C)C(=O)O; Nle = CCCC[C@H](N)C(=O)O; Aib = CC(C)(N)C(=O)O Where only a bound is given, the exact number is not on record here.

The labels stand for the following.
B1: CTX-1651 (peptide)
peptide: {CH2CO}-[Aib]R[dF]RFC-NH2
modifications: thioether N-6
SMILES: CC1(C)NC(=O)CSC[C@@H](C(N)=O)NC(=O)[C@H](Cc2ccccc2)NC(=O)[C@H](CCCNC(=N)N)NC(=O)[C@@H](Cc2ccccc2)NC(=O)[C@H](CCCNC(=N)N)NC1=O
B2: CTX-2128 (peptide)
peptide: Ac-[Nle]CH[2Nal]R[dW]CRFG-NH2
modifications: disulfide 2-7
SMILES: CCCC[C@H](NC(C)=O)C(=O)N[C@H]1CSSC[C@@H](C(=O)N[C@@H](CCCNC(=N)N)C(=O)N[C@@H](Cc2ccccc2)C(=O)NCC(N)=O)NC(=O)[C@@H](Cc2c[nH]c3ccccc23)NC(=O)[C@H](CCCNC(=N)N)NC(=O)[C@H](Cc2ccc3ccccc3c2)NC(=O)[C@H](Cc2c[nH]cn2)NC1=O
B3: CTX-1263 (peptide)
peptide: Ac-RC[dA]R[dF]R[dW]C-NH2
modifications: disulfide 2-8
SMILES: CC(=O)N[C@@H](CCCNC(=N)N)C(=O)N[C@H]1CSSC[C@@H](C(N)=O)NC(=O)[C@@H](Cc2c[nH]c3ccccc23)NC(=O)[C@H](CCCNC(=N)N)NC(=O)[C@@H](Cc2ccccc2)NC(=O)[C@H](CCCNC(=N)N)NC(=O)[C@@H](C)NC1=O
B4: CTX-1654 (peptide)
peptide: {CH2CO}-GR[dF]RFC-NH2
modifications: thioether N-6
SMILES: N=C(N)NCCC[C@@H]1NC(=O)CNC(=O)CSC[C@@H](C(N)=O)NC(=O)[C@H](Cc2ccccc2)NC(=O)[C@H](CCCNC(=N)N)NC(=O)[C@@H](Cc2ccccc2)NC1=O
B5: CTX-1265 (peptide)
peptide: Ac-RC[dA]R[dF]R[dF]C-NH2
modifications: disulfide 2-8
SMILES: CC(=O)N[C@@H](CCCNC(=N)N)C(=O)N[C@H]1CSSC[C@@H](C(N)=O)NC(=O)[C@@H](Cc2ccccc2)NC(=O)[C@H](CCCNC(=N)N)NC(=O)[C@@H](Cc2ccccc2)NC(=O)[C@H](CCCNC(=N)N)NC(=O)[C@@H](C)NC1=O
B6: CTX-1653 (peptide)
peptide: {CH2CO}-GH[dF]RFC-NH2
modifications: thioether N-6
SMILES: N=C(N)NCCC[C@@H]1NC(=O)[C@@H](Cc2ccccc2)NC(=O)[C@H](Cc2c[nH]cn2)NC(=O)CNC(=O)CSC[C@@H](C(N)=O)NC(=O)[C@H](Cc2ccccc2)NC1=O
B7: CTX-1657 (peptide)
peptide: {CH2CO}-[dA]R[dF]RFC-NH2
modifications: thioether N-6
SMILES: C[C@H]1NC(=O)CSC[C@@H](C(N)=O)NC(=O)[C@H](Cc2ccccc2)NC(=O)[C@H](CCCNC(=N)N)NC(=O)[C@@H](Cc2ccccc2)NC(=O)[C@H](CCCNC(=N)N)NC1=O
B8: CTX-1267 (peptide)
peptide: Ac-RCAR[dF]RWC-NH2
modifications: disulfide 2-8
SMILES: CC(=O)N[C@@H](CCCNC(=N)N)C(=O)N[C@H]1CSSC[C@@H](C(N)=O)NC(=O)[C@H](Cc2c[nH]c3ccccc23)NC(=O)[C@H](CCCNC(=N)N)NC(=O)[C@@H](Cc2ccccc2)NC(=O)[C@H](CCCNC(=N)N)NC(=O)[C@H](C)NC1=O
B9: CTX-1648 (peptide)
peptide: {CH2CO}-[Aib]R[dF]RWC-NH2
modifications: thioether N-6
SMILES: CC1(C)NC(=O)CSC[C@@H](C(N)=O)NC(=O)[C@H](Cc2c[nH]c3ccccc23)NC(=O)[C@H](CCCNC(=N)N)NC(=O)[C@@H](Cc2ccccc2)NC(=O)[C@H](CCCNC(=N)N)NC1=O
B10: CTX-1656 (peptide)
peptide: {CH2CO}-[dA]H[dF]RFC-NH2
modifications: thioether N-6
SMILES: C[C@H]1NC(=O)CSC[C@@H](C(N)=O)NC(=O)[C@H](Cc2ccccc2)NC(=O)[C@H](CCCNC(=N)N)NC(=O)[C@@H](Cc2ccccc2)NC(=O)[C@H](Cc2c[nH]cn2)NC1=O
B11: CTX-1203 (peptide)
peptide: {CH2CO}-[dA][NMeH][dF]R[NMeW]C-NH2
modifications: thioether N-6
SMILES: C[C@H]1NC(=O)CSC[C@@H](C(N)=O)NC(=O)[C@H](Cc2c[nH]c3ccccc23)N(C)C(=O)[C@H](CCCNC(=N)N)NC(=O)[C@@H](Cc2ccccc2)NC(=O)[C@H](Cc2c[nH]cn2)N(C)C1=O
B12: CTX-1649 (peptide)
peptide: {CH2CO}-[Aib][Cit][dF]RWC-NH2
modifications: thioether N-6
SMILES: CC1(C)NC(=O)CSC[C@@H](C(N)=O)NC(=O)[C@H](Cc2c[nH]c3ccccc23)NC(=O)[C@H](CCCNC(=N)N)NC(=O)[C@@H](Cc2ccccc2)NC(=O)[C@H](CCCNC(N)=O)NC1=O
B13: CTX-1650 (peptide)
peptide: {CH2CO}-[Aib]H[dF]RFC-NH2
modifications: thioether N-6
SMILES: CC1(C)NC(=O)CSC[C@@H](C(N)=O)NC(=O)[C@H](Cc2ccccc2)NC(=O)[C@H](CCCNC(=N)N)NC(=O)[C@@H](Cc2ccccc2)NC(=O)[C@H](Cc2c[nH]cn2)NC1=O
B14: CTX-1269 (peptide)
peptide: Ac-RC[NMeA]R[dF]R[dW]C-NH2
modifications: disulfide 2-8
SMILES: CC(=O)N[C@@H](CCCNC(=N)N)C(=O)N[C@H]1CSSC[C@@H](C(N)=O)NC(=O)[C@@H](Cc2c[nH]c3ccccc23)NC(=O)[C@H](CCCNC(=N)N)NC(=O)[C@@H](Cc2ccccc2)NC(=O)[C@H](CCCNC(=N)N)NC(=O)[C@H](C)N(C)C1=O

Sequence of human MC3R (P41968 whole entry): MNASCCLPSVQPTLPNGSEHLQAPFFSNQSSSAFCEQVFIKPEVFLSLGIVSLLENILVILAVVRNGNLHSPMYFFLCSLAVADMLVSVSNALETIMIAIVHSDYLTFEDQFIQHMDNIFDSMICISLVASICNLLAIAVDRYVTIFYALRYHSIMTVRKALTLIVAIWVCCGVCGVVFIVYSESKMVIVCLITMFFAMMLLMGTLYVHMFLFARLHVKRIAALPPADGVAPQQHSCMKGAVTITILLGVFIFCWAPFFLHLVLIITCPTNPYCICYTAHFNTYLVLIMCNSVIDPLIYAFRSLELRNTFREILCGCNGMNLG

One test concerns the target human MC3R (human, UniProt P41968 1-323). Kind of test: cell-based or functional assay.
Consider B1, for which the “cAMP EC50” value was greater than 10000 nM.
Take B2: the “% max activation” value is 99% and the “cAMP EC50” value was determined as 39 nM.
Take B3: the “% max activation” value worked out at 69% and the “cAMP EC50” value was found to be 11 nM.
Regarding B4, the “% max activation” value was 43% and the “cAMP EC50” value was determined as 5890 nM.
On to B5, for which the “cAMP EC50” value amounted to 29.9 nM.
For B6, the “cAMP EC50” value was greater than 10000 nM.
Consider B7, for which the “% max activation” value is 30% and the “cAMP EC50” value amounted to 8810 nM.
For the molecule Ac-RC[dA]R[dF]R[d2Nal]C-NH2 (disulfide 2-8) [CTX-1264], the “% max activation” value was 44% and the “cAMP EC50” value was found to be 3.7 nM.
With B8, the “% max activation” value was found to be 40% and the “cAMP EC50” value amounted to 12 nM.
B9: the “% max activation” value came to 91% and the “cAMP EC50” value is 72 nM.
For B10 the same measures were 86% and 2300 nM.
Regarding Ac-RC[Aib]R[dF][Cit]WC-NH2 (disulfide 2-8) [CTX-1270], the “% max activation” value amounted to 14% and the “cAMP EC50” value came to 52 nM.
Turning to B11, the “% max activation” value worked out at 107% and the “cAMP EC50” value stood at 2610 nM.
On to B12, for which the “% max activation” value turned out to be 79% and the “cAMP EC50” value was 479 nM.
Turning to B13, the “% max activation” value is 125% and the “cAMP EC50” value worked out at 15200 nM.
Turning to B14, the “% max activation” value came out at 39% and the “cAMP EC50” value is 121 nM.

A further test deals with T1, human MC4R receptor (human, UniProt P32245 1-332). Kind of test: cell-based or functional assay.
T1 sequence (P32245 whole entry): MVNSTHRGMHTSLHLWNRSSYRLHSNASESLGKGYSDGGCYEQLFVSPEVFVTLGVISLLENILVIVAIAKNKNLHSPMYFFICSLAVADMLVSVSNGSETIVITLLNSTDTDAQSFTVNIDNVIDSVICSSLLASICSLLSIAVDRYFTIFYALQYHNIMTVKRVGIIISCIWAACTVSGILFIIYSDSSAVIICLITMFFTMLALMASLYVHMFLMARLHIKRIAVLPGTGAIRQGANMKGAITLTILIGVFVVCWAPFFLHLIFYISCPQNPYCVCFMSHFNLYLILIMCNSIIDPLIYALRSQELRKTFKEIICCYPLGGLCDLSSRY
Regarding B1, the “% max activation” value is 92% and the “cAMP EC50” value came to 1190 nM.
Taken in the same sequence, the figures for B2 were 87% and 7210 nM.
As to B3, the “% max activation” value turned out to be 93% and the “cAMP EC50” value came out at 6.5 nM.
In the case of B4, the “% max activation” value was 81% and the “cAMP EC50” value stood at 1090 nM.
For B5, the “cAMP EC50” value turned out to be 703 nM.
For the molecule B6, the “% max activation” value is 83% and the “cAMP EC50” value was found to be 1220 nM.
B7: the “% max activation” value worked out at 78% and the “cAMP EC50” value turned out to be 2470 nM.
With Ac-RC[dA]R[dF]R[d2Nal]C-NH2 (disulfide 2-8) [CTX-1264], the “% max activation” value is 80% and the “cAMP EC50” value was found to be 13 nM.
Turning to B8, the “% max activation” value was determined as 96% and the “cAMP EC50” value came out at 3 nM.
Consider B9, for which the “% max activation” value was 101% and the “cAMP EC50” value worked out at 1.1 nM.
For B10, the “% max activation” value is 98% and the “cAMP EC50” value was determined as 1400 nM.
Take Ac-RC[Aib]R[dF][Cit]WC-NH2 (disulfide 2-8) [CTX-1270]: the “% max activation” value was determined as 98% and the “cAMP EC50” value was 27 nM.
With B11, the “% max activation” value came out at 109% and the “cAMP EC50” value came out at 16 nM.
B12: the “% max activation” value was 97% and the “cAMP EC50” value came to 6.6 nM.
On to B13, for which the “% max activation” value worked out at 113% and the “cAMP EC50” value is 288 nM.
On to B14, for which the “% max activation” value was 92% and the “cAMP EC50” value stood at 13 nM.

Another test deals with T1, human MC4R receptor. Briefly: cell-based or functional assay. This is another data set of the same source.
Consider B1, for which the “MC4R selectivity vs MC1R” value worked out at 1.45 and the “MC4R selectivity vs MC3R” value is greater than 8.
On to B2, for which the “MC4R selectivity vs MC3R” value came out at 0.01.
With B3, the “MC4R selectivity vs MC1R” value is 1.73 and the “MC4R selectivity vs MC3R” value was found to be 1.62.
With B4, the “MC4R selectivity vs MC1R” value came to 0.62 and the “MC4R selectivity vs MC3R” value is 5.41.
Turning to B5, the “MC4R selectivity vs MC1R” value was 0.02.
With B6, the “MC4R selectivity vs MC1R” value is 0.83 and the “MC4R selectivity vs MC3R” value was greater than 8.
B7: the “MC4R selectivity vs MC1R” value is 1.42 and the “MC4R selectivity vs MC3R” value was 3.56.
With Ac-RC[dA]R[dF]R[d2Nal]C-NH2 (disulfide 2-8) [CTX-1264], the “MC4R selectivity vs MC1R” value amounted to 0.14 and the “MC4R selectivity vs MC3R” value is 0.29.
On to B8, for which the “MC4R selectivity vs MC1R” value was 0.5 and the “MC4R selectivity vs MC3R” value came out at 4.07.
As to B9, the “MC4R selectivity vs MC1R” value was 13 and the “MC4R selectivity vs MC3R” value amounted to 63.
Turning to B10, the “MC4R selectivity vs MC1R” value came out at 1 and the “MC4R selectivity vs MC3R” value was 1.64.
As to Ac-RC[Aib]R[dF][Cit]WC-NH2 (disulfide 2-8) [CTX-1270], the “MC4R selectivity vs MC1R” value is 2.49 and the “MC4R selectivity vs MC3R” value came out at 1.88.
Turning to B11, the “MC4R selectivity vs MC1R” value was determined as 2.32 and the “MC4R selectivity vs MC3R” value worked out at 161.
With B12, the “MC4R selectivity vs MC1R” value was 1650 and the “MC4R selectivity vs MC3R” value turned out to be 72.
Regarding B13, the “MC4R selectivity vs MC1R” value is 0.95 and the “MC4R selectivity vs MC3R” value came to 53.
Regarding B14, the “MC4R selectivity vs MC1R” value turned out to be 2.56 and the “MC4R selectivity vs MC3R” value was 9.31.
